Tests used:
[1] = target: the molecule itself; experiment: cryo-EM structure; helical reconstruction of core RIP2–CARD–EM filaments, 4.1 Å (FSC = 0.143), Relion 2.0
[2] = target: the molecule itself; experiment: SEC; size-exclusion profiles of the purified NOD1/RIP2 and NOD2/RIP2 fusion proteins
[3] = target: the molecule itself; experiment: induced oligomerization assay; RIP2 and NLRC4–CARD monomers each mixed with their own and with other seed complexes (Supplementary Figure 4d)
[4] = target: the molecule itself; experiment: negative stain EM; FLAG-tagged proteins overexpressed in HEK293T, purified with anti-FLAG M2 agarose beads and concentrated; filaments looked for
[5] = target: the molecule itself; experiment: negative stain EM; recombinant SNAP–RIP2–CARD seeds co-incubated with refolded monomers (about 20 μM monomer, 10:1 monomer to seed, overnight); SNAP removed with 3C protease for the core filaments; 49,000x

B1: RIP2–CARD–EM (domain or fragment, human)
chain: VDEALREAQTKSAQPGIAQQWIQSKREDIVNQMTEACLNQSLDALLSRDLIMKEDYELVSTKPTRTSKVRQLLDTTDIQGEEFAKVIVQKLKDNKQMGLQPYPEILVVSRS
notes: 13 extra amino acids (13aa) attached to the N-terminus of residue 432 of RIP2–CARD; RIP2 (RIPK2), human, CARD domain 432–529 (last 11 residues of 432–540 removed); also called core RIP2–CARD–EM; RIP2–CARD (432–529); source: E. coli BL21(DE3); not shown: SNAP-tag, N-terminal, cleaved
B1: binds [1].

B2: top-down NOD1/RIP2 fusion construct (other)
chain: QPGIAQQWIQSKERDIVNQMTEACLNQSLDALLSRDLIMKEDYELVSTKPTRTSKVRQLLDTTDIQGEEFAKVIVQKLKDNKQMGLQPYPEILVVSRSPSLNLLQNKSMMEEQGHSEMEIIPSESHPHIQLLKSNRELLVTHIRNTQCLVDNLLKNDYFSAEDAEIVCACPTQPDKVRKILDLVQSKGEEVSEFFLYLLQQLADAYVDLRPWLLEIGFS
In the case of B2, the “stoichiometry N” value [2] is reported as about 4.

B3: top-down NOD2/RIP2 fusion construct (other)
chain: QPGIAQQWIQSKERDIVNQMTEACLNQSLDALLSRDLIMKEDYELVSTKPTRTSKVRQLLDTTDIQGEEFAKVIVQKLKDNKQMGLQPYPEILVVSRSPSLNLLQNKSMMCSQEAFQAQRSQLVELLVSGSLEGFESVLDWLLSWEVLSWEDYEGFHLLGQPLSHLARRLLDTVWNKGTWACQKLIAAAQEAQADSQSPKLHGCWDPHSLHPARDLQSHRPAIVRRLHSHVENMLDLAWERGFVSQYECDEIRLPIFTPSQRARRLLDLATVKANGLAAFLLQHVQELPVPLALPLEAATCK
B3 was tested, and the “stoichiometry N” value [2] was about 4.

B4: SNAP–RIP2–CARD (domain or fragment, human, UniProt O43353 432-540, looked up)
chain: QPGIAQQWIQSKREDIVNQMTEACLNQSLDALLSRDLIMKEDYELVSTKPTRTSKVRQLLDTTDIQGEEFAKVIVQKLKDNKQMGLQPYPEILVVSRSPSLNLLQNKSM
modifications: BG-Alexa Fluor 647 on monomers, BG-Alexa Fluor 488 on seeds (native gel assay)
notes: RIP2 (RIPK2), human, CARD domain residues 432–540; a 3C protease site lies between SNAP and the CARD; the methods also name a RIP2–CARD (432–540)–SNAP; also called SNAP–RIP2–CARD seeds; SNAP–RIP2–CARD monomers; source: E. coli BL21(DE3), purified (Ni-NTA, SEC): oligomeric seed fraction; not shown: SNAP-tag, N-terminal, kept
B4: binds [3].

B5: FLAG–RIP2-kinase-NLRC4–CARD (other, human, UniProt O43353 1-431, looked up)
chain: MNGEAICSALPTIPYHKLADLRYLSRGASGTVSSARHADWRVQVAVKHLHIHTPLLDSERKDVLREAEILHKARFSYILPILGICNEPEFLGIVTEYMPNGSLNELLHRKTEYPDVAWPLRFRILHEIALGVNYLHNMTPPLLHHDLKTQNILLDNEFHVKIADFGLSKWRMMSLSQSRSSKSAPEGGTIIYMPPENYEPGQKSRASIKHDIYSYAVITWEVLSRKQPFEDVTNPLQIMYSVSQGHRPVINEESLPYDIPHRARMISLIESGWAQNPDERPSFLKCLIELEPVLRTFEEITFLEAVIQLKKTKLQSVSSAIHLCDKKKMELSLNIPVNHGPQEESCGSSQLHENSGSPETSRSLPAPQDNDFLSRKAQDCYFMKLHHCPGNHSWDSTISGSQRAAFCDHKTTPCSSAIINPLSTAGNSERLMNFIKDNSRALIQRMGMTVIKQITDDLFVWNVLNREEVNIICCEKVEQDAARGIIHMILKKGSESCNLFLKSLKEWNYPLFQDLNGQSLFHQTSEGDLDD
notes: RIP2 (RIPK2), human, what is left of 1–540 when the CARD domain (432–540) is replaced; NLRC4 CARD, human, residues 1–100, in place of the RIP2–CARD domain; the limit 431 is worked out from the replaced stretch 432–540; also called chimeric RIP2; NLRC4–CARD swapped construct; source: HEK293T, transfected; purified from cellular extracts (EM); in total cellular extracts (sedimentation); not shown: …
B5: binds [4].

B6: core RIP2–CARD filament (SNAP removed) (domain or fragment, human, UniProt O43353 432-540, looked up)
chain: B4 chain
notes: RIP2 (RIPK2), human, CARD domain residues 432–540; also called 3C-protease-digested core RIP2–CARD thin filament; source: E. coli BL21(DE3); extended SNAP–RIP2–CARD filaments digested with 3C protease, purified (Superose 6); not shown: SNAP-tag, N-terminal, cleaved
B6: binds [5].

From article PMC6255760 (Nature Communications, 2018)
